From publication PMC11178655, “Dosimetry and pharmacokinetics of [^177Lu]Lu-satoreotide tetraxetan in patients with progressive neuroendocrine tumours” (European Journal of Nuclear Medicine and Molecular Imaging, 2024)
Where a SMILES comes first, the peptide text is derived from it. Bridges are numbered along the chain shown (N, C = ends). [ ]: non-standard residue; d: D form. The star is where a group is joined. DOTA = O=C(O)CN1CCN(CC(=O)O)CCN(CC(=O)*)CCN(CC(=O)O)CC1; dPhe(4-NHCONH2) = NC(=O)Nc1ccc(C[C@@H](N)C(=O)O)cc1; Dihydroorotyl(S) = O=C1C[C@@H](C(=O)*)NC(=O)N1; Phe(4-Cl) = N[C@@H](Cc1ccc(Cl)cc1)C(=O)O; Phe(4-NH2) = Nc1ccc(C[C@H](N)C(=O)O)cc1

Assays:
Type in all cases: in vivo, human
[1] = Radioactive metabolites in plasma; conditions: 1 min, 4 h, and 1, 2, 3, and 6 days after each administration, two study centres
Method: (§1) To generate pharmacokinetic data, blood samples (2 mL) were taken at the stop of infusion (0 min) and 5, 30, and 60 min, 4 h, and 1, 2, 3, and 6 days after the end of each [^177Lu]Lu-satoreotide tetraxetan administration. Urine samples were collected over three intervals within 48 h (0–6 h, 6–24 h, and 24–48 h in part A; 0–4 h, 4–24 h, and 24–48 h in part B) following the first treatment cycle of [^177Lu]Lu-satoreotide tetraxetan. Total activity concentrations in whole blood and urine were determined locally, using a gamma counter calibrated for lutetium-177. In two selected study centres, additional blood samples (2 mL) were collected at 1 min, 4 h, and 1, 2, 3, and 6 days after each [^177Lu]Lu-satoreotide tetraxetan administration to evaluate potential radioactive metabolites in plasma.

[2] = test system: patients with progressive, SSTR-positive NETs; assay: Model-based organ dosimetry, OLINDA/EXM version 1.0 (part B, first cycle); conditions: OLINDA/EXM 1.0, part B, median
Method: Patient-specific dosimetry calculations were performed after each treatment cycle in both parts A and B, using the absorbed dose calculation features of the NUKDOS software for image-based dosimetry calculations. The NUKDOS software was chosen as it allowed for an integral approach to organ dosimetry (including image quantification, time-activity curve-fitting and dosimetry calculation). For the bone marrow, both image-based and blood-based calculations were performed in part A [28, 29]. In part B, only image-based bone marrow dosimetry was performed. Organ Level INternal Dose Assessment/EXponential Modelling (OLINDA/EXM) version 1.0 software, the most widely used version at the time of the study, was used to perform model-based dosimetry calculations, which were only performed after the first [^177Lu]Lu-satoreotide tetraxetan cycle for patients in part B. To generate organ-specific absorbed doses, TIACs were used as input data. Full details on OLINDA/EXM software settings and organ-specific TIAC calculation methods are provided in the Supplementary Information.
Patient-specific dosimetry calculations were performed according to European Association of Nuclear Medicine Dosimetry Guidance after each treatment cycle in both parts A and B, using the absorbed dose calculation features of the NUKDOS software (i.e., integration of the time-activity curves, calculation of the absorbed dose). Model-based dosimetry calculations were only performed after the first [^177Lu]Lu-satoreotide tetraxetan cycle and for patients in part B. To generate organ-specific absorbed doses, TIACs were used as input data in the Organ Level INternal Dose Assessment/EXponential Modelling (OLINDA/EXM) software version 1.0, which was granted Food and Drug Administration 510(k) clearance in June 2004. The following settings were applied: ^177Lu isotope, no bladder voiding model, adult male or female phantom. As the OLINDA/EXM software makes no distinction between the right and left kidneys, their TIACs were summed. In case biokinetic data were available for one kidney only, the kidney TIAC value was doubled. For the bone marrow, the patient-specific mass of the analysed vertebrae was used for upscaling image-based TIAC values according to the OLINDA/EXM phantom gender-specific masses (mBone marrow=1,120 g for males and 1,300 g for females):
The kidney, spleen, liver, and bone marrow TIACs were subtracted from the patient’s whole-body TIAC to obtain the TIAC of the remainder of the body.

[3] = test system: patients with progressive, SSTR-positive NETs; assay: Blood-based bone marrow dosimetry (part A); conditions: cycles 1–3, 11 evaluated patients, median
Method: as §1
Patient-specific dosimetry calculations were performed after each treatment cycle in both parts A and B, using the absorbed dose calculation features of the NUKDOS software for image-based dosimetry calculations. The NUKDOS software was chosen as it allowed for an integral approach to organ dosimetry (including image quantification, time-activity curve-fitting and dosimetry calculation). For the bone marrow, both image-based and blood-based calculations were performed in part A [28, 29]. In part B, only image-based bone marrow dosimetry was performed. […]

## C[C@@H](O)[C@@H]1NC(=O)[C@H](CCCCN)NC(=O)[C@@H](Cc2ccc(NC(N)=O)cc2)NC(=O)[C@H](Cc2ccc(NC(=O)[C@@H]3CC(=O)NC(=O)N3)cc2)NC(=O)[C@H](NC(=O)[C@H](Cc2ccc(Cl)cc2)NC(=O)CN2CCN(CC(=O)O)CCN(CC(=O)O)CCN(CC(=O)O)CC2)CSSC[C@@H](C(=O)N[C@H](Cc2ccc(O)cc2)C(N)=O)NC1=O [[^177Lu]Lu-satoreotide tetraxetan, metal not drawn] ({DOTA}-[Phe(4-Cl)][dC][Phe(4-NH2)](Dihydroorotyl(S))[dPhe(4-NHCONH2)]KTC[dY]-NH2; disulfide 2-7 (inferred); C-terminus assumed)
[1]
  Radioactive metabolites in plasma samples: No radioactive metabolites were observed
[2]; N = 18
  Calculated absorbed dose for 3 cycles of 4.5 GBq each, Red marrow: 1.47 Gy
  Calculated absorbed dose for 3 cycles of 4.5 GBq each, Spleen: 8.78 Gy
[2]; N = 24
  Calculated absorbed dose for 3 cycles of 4.5 GBq each, Adrenals: 1.03 Gy
  Calculated absorbed dose for 3 cycles of 4.5 GBq each, Brain: 0.96 Gy
  Calculated absorbed dose for 3 cycles of 4.5 GBq each, Breasts: 0.95 Gy
  Calculated absorbed dose for 3 cycles of 4.5 GBq each, Gallbladder wall: 1.02 Gy
  Calculated absorbed dose for 3 cycles of 4.5 GBq each, Heart wall: 0.99 Gy
  Calculated absorbed dose for 3 cycles of 4.5 GBq each, Kidneys: 14.18 Gy
  Calculated absorbed dose for 3 cycles of 4.5 GBq each, Lungs: 0.98 Gy
  Calculated absorbed dose for 3 cycles of 4.5 GBq each, Muscle: 0.97 Gy
  Calculated absorbed dose for 3 cycles of 4.5 GBq each, Osteogenic cells: 3.96 Gy
  Calculated absorbed dose for 3 cycles of 4.5 GBq each, Ovaries: 1.00 Gy
  Calculated absorbed dose for 3 cycles of 4.5 GBq each, Pancreas: 1.05 Gy
  Calculated absorbed dose for 3 cycles of 4.5 GBq each, Skin: 0.93 Gy
  Calculated absorbed dose for 3 cycles of 4.5 GBq each, Small intestine: 1.00 Gy
  Calculated absorbed dose for 3 cycles of 4.5 GBq each, Stomach wall: 1.01 Gy
  Calculated absorbed dose for 3 cycles of 4.5 GBq each, Thymus: 0.98 Gy
  Calculated absorbed dose for 3 cycles of 4.5 GBq each, Thyroid: 0.96 Gy
  Calculated absorbed dose for 3 cycles of 4.5 GBq each, Total body: 1.08 Gy
[2]; N = 24, may be an underestimation
  Calculated absorbed dose for 3 cycles of 4.5 GBq each, Liver: 1.07 Gy
[2]; female patients N = 11
  Calculated absorbed dose for 3 cycles of 4.5 GBq each, Uterus: 1.13 Gy
[2]; male patients N = 13
  Calculated absorbed dose for 3 cycles of 4.5 GBq each, Testes: 0.72 Gy
[2]; lower large intestine, N = 24
  Calculated absorbed dose for 3 cycles of 4.5 GBq each, LLI wall: 1.00 Gy
[2]; upper large intestine, N = 24
  Calculated absorbed dose for 3 cycles of 4.5 GBq each, ULI wall: 1.01 Gy
[2]; urinary bladder, N = 24
  Calculated absorbed dose for 3 cycles of 4.5 GBq each, UB wall: 0.99 Gy
[3]
  Cumulative absorbed dose, bone marrow, blood-based method: 0.3 Gy
